Target: T1, human TD-60 with an amino-terminal streptavidin-binding protein (SBP) tag (human, UniProt Q9P258 1-522)
T1 construct: TD-60 (RCC2), human; cDNA codon optimized and made synthetically; The far-western sentence says only 'purified TD-60'; The GEF assay names it 'SBP-tagged recombinant TD-60'; far-western methods are in the Supplementary Methods; also called SBP-TD-60; RCC2; source: Sf9 cells (baculovirus, pFastBacI), purified
Assay: far-Western; purified RalA or purified Ran tested on purified TD-60; details only in the Supplementary Methods
Conditions: both partners purified

T1 sequence (Q9P258 whole entry): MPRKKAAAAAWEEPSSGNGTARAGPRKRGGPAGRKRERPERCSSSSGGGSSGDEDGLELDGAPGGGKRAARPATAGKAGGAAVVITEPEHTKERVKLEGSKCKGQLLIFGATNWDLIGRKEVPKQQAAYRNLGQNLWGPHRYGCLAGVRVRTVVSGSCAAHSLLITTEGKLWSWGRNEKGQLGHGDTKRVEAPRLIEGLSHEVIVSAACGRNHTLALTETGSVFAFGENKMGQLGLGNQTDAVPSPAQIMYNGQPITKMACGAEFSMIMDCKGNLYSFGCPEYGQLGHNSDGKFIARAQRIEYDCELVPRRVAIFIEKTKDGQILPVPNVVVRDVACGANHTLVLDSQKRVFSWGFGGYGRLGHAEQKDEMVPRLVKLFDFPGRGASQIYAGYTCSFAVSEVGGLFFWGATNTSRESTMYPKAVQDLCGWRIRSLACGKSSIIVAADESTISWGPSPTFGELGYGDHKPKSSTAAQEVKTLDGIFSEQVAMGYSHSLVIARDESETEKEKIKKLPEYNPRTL

B1: purified human RalA (cloned into pFAT2) (natural protein, UniProt P11233 1-206, looked up)
chain: MAANKPKGQNSLALHKVIMVGSGGVGKSALTLQFMYDEFVEDYEPTKADSYRKKVVLDGEEVQIDILDTAGQEDYAAIRDNYFRSGEGFLCVFSITEMESFAATADFREQILRVKEDENVPFLLVGNKSDLEDKRQVSVEEAKNRAEQWNVNYVETSAKTRANVDKVFFDLMREIRARKMEDSKEKNGKKKRKSLAKRIRERCCIL
notes: RalA, human; The RalA of the GEF assay is called GST-tagged; also called Ras-related protein RalA; source: purified; cloned into pFAT2
binding result: binds

— publication PMC4510650, “TD-60 links RalA GTPase function to the CPC in mitosis” (Nature Communications, 2015)
